In patent publication US11007356B2, “Ingestible device for delivery of therapeutic agent to the gastrointestinal tract” (Progenity, Inc., priority 2018, dated 2021):

B1: evolocumab (antibody, chains of the INN, looked up, V domains shown)
VH: EVQLVQSGAEVKKPGASVKVSCKASGYTLTSYGISWVRQAPGQGLEWMGWVSFYNGNTNYAQKLQGRGTMTTDPSTSTAYMELRSLRSDDTAVYYCARGYGMDVWGQGTTVTVSS
VL: ESALTQPASVSGSPGQSITISCTGTSSDVGGYNSVSWYQQHPGKAPKLMIYEVSNRPSGVSNRFSGSKSGNTASLTISGLQAEDEADYYCNSYTSTSMVFGGGTKLTVL
B2: emicizumab (antibody, chains of the INN, looked up, V domains shown)
VH: QVQLVQSGSELKKPGASVKVSCKASGYTFTDNNMDWVRQAPGQGLEWMGDINTRSGGSIYNEEFQDRVIMTVDKSTDTAYMELSSLRSEDTATYHCARRKSYGYYLDEWGEGTLVTVSS
VL: DIQMTQSPSSLSASVGDRVTITCKASRNIERQLAWYQQKPGQAPELLIYQASRKESGVPDRFSGSRYGTDFTLTISSLQPEDIATYYCQQYSDPPLTFGGGTKVEIK
VH2: QVQLVESGGGLVQPGGSLRLSCAASGFTFSYYDIQWVRQAPGKGLEWVSSISPSGQSTYYRREVKGRFTISRDNSKNTLYLQMNSLRAEDTAVYYCARRTGREYGGGWYFDYWGQGTLVTVSS
VL2: DIQMTQSPSSLSASVGDRVTITCKASRNIERQLAWYQQKPGQAPELLIYQASRKESGVPDRFSGSRYGTDFTLTISSLQPEDIATYYCQQYSDPPLTFGGGTKVEIK
B3: pegfilgrastim (protein, UniProt P09919 31-207, looked up)
Granulocyte …: TPLGPASSLPQSFLLKCLEQVRKIQGDGAALQEKLVSECATYKLCHPEELVLLGHSLGIPWAPLSSCPSQALQLAGCLSQLHSGLFLYQGLLQALEGISPELGPTLDTLQLDVADFATTIWQQMEELGMAPALQPTQGAMPAFASAFQRRAGGVLVASHLQSFLEVSYRVLRHLAQP
modifications: N-terminal Met; PEG
B4: concizumab (antibody, chains of the INN, looked up, V domains shown)
VH: EVQLVESGGGLVKPGGSLRLSCAASGFTFSNYAMSWVRQTPEKRLEWVATISRSGSYSYFPDSVQGRFTISRDNAKNSLYLQMNSLRAEDTAVYYCARLGGYDEGDAMDSWGQGTTVTVSS
VL: DIVMTQTPLSLSVTPGQPASISCKSSQSLLESDGKTYLNWYLQKPGQSPQLLIYLVSILDSGVPDRFSGSGSGTDFTLKISRVEAEDVGVYYCLQATHFPQTFGGGTKVEIK

Tests used:
[1] = in vivo, sc; cited from earlier work
[2] = Dosing regimen model: required bioavailability for ingestible device (Tables 16, 17); conditions: for Eff Dose: approved dose x bioavailability of the approved route (Table 16)

Molecule | Bio Avail (Approved Dosing Info) [1] [%] | Eff Dose [2] [mg] | Bioavail. (Baseline dose) [1] [%] | Eff. Dose ([2]; baseline dose x bioavailability, SC (Table 17), assumed weight 70 kg) [mg]
B1 | 82 | 114.8 |  | 
B2 | 85 | 89.3 |  | 
B3 | 70 | 4.2 |  | 
B4 |  |  | 93.0 | 16.3
